Tests used:
[1] = target: T1, recombinant human HER2 (extracellular domain)-Fc fusion protein (human, UniProt P04626 23-652); experiment: SPR (BIAcore T200), antibody injected over immobilized HER2-ECD-Fc, pH 5.8, apparent KD (FIG. 4B); pH 5.8
T1 construct: extracellular domain; Bought reagent; also called HER2-ECD-Fc; HER-extracellular domain (ECD)-Fc fusion; not shown: immunoglobulin Fc fragment of the bought fusion protein

[2] = target: T1, recombinant human HER2 (extracellular …); experiment: SPR, antibody injected over immobilized HER2-ECD-Fc, apparent equilibrium dissociation constant, pH 5.8
[3] = target: T1, recombinant human HER2 (extracellular …); experiment: SPR, antibody injected over immobilized HER2-ECD-Fc, apparent equilibrium dissociation constant, pH 6.5
[4] = target: T1, recombinant human HER2 (extracellular …); experiment: SPR, antibody injected over immobilized HER2-ECD-Fc, apparent equilibrium dissociation constant, pH 7.0
[5] = target: T1, recombinant human HER2 (extracellular …); experiment: SPR, antibody injected over immobilized HER2-ECD-Fc, apparent equilibrium dissociation constant, pH 7.4

B1: YS mutant of pertuzumab (Tyr55 to histidine in the light chain variable domain and Ser103 to histidine in the heavy chain variable domain) (antibody, human IgG1, V domains shown)
VH: QVQLQESGGGLVQPGGSLRLSCAASGFTFTDYTMDWVRQAPGKGLEWVADVNPNSGGSIYNQRFKGRFTLSVDRSKNTLYLQMNSLRAEDTAVYYCARNLGPHFYFDYWGQGTLVTVSS
VL: DIELTQSPSSLSASVGDRVTITCKASQDVSIGVAWYQQKPGKAPKLLIYSASYRHTGVPSRFSGSGSGTDFTLTISSLQPEDFATYYCQQYYIYPYTFGQGTKLEIKR
notes: Tested without conjugated drug in the SPR assay; also called YS variant of pertuzumab
Kd [1]: > 1500 nM | Kd [2]: 1630 nM | Kd [3]: 67.9 nM | Kd [4]: 22.1 nM | Kd [5]: 6.3 nM

— US20190381183A1 (TEXAS A AND M UNIVERSITY SYSTEM, published 2019)
